Data reported in US7482133B2, “Catalytic domains of β(1,4)-galactosyltransferase I having altered donor and acceptor specificities, domains that promote in vitro protein folding, and methods for their use” (The United States of America as represented by the …, priority 2003, dated 2009).

What was measured:
Assay type in all cases: biochemical
[1] = GalNAc-T activity in absence and presence of LA, acceptor Glc; details: in the presence of LA
Protocol: Gal-T and GalNAc-T Enzyme Assays: The protein concentrations were measured using the Bio-Rad protein assay kit, based on the method of Bradford and further verified on SDS gel. […] The activities were measured using UDP-Gal or UDP-GalNAc as sugar nucleotide donors, and GlcNAc and Glc as the acceptor sugars. For the specific activity measurements, a 100-μl incubation mixture containing 50 mM β-benzyl-GlcNAc, 10 mM MnCl2, 10 mM Tris-HCl, pH 8.0, 500 μM UDP-Gal or UDP-GalNAc, 20 ng of Gal-T1, and 0.5 μCl of [^3H]UDP-Gal or [^3H]UDP-GalNAc was used for each Gal-T or GalNAc-T reaction. The incubation was carried out at 37° C. for 10 min. […] The column was washed successfully with 300, 400, and 500 μl of water, and the column flow-through was diluted with Biosafe scintillation fluid; radioactivity was measured with a Beckman counter. A reaction without the acceptor sugar was used as a control. […]

[2] = GalNAc-T specific activity assay; details: for UDP-GalNAc → GlcNAc GalNAc-T activity: donor 500 μM, acceptor β-benzyl-GlcNAc 25 mM
Protocol: (§1) For example, the galactose and N-acetylgalactosyltransferase activity of β(1,4)-galactosyltransferase I can be determined using the following assay conditions. […], 10 mM MnCl2, 10 mM Tris-HCl (pH 8.0), 500 μM UDP-Gal or UDP-GalNAc, and 20 ng of β(1,4)-galactosyltransferase I can be incubated at 37° C. for 10 minutes to promote coupling of a donor sugar to an acceptor sugar. While these conditions are provided as an example, it is understood that many other conditions may be used to chemically link a donor to an acceptor using the altered catalytic domains of the invention.
(§2) Gal-T and GalNAc-T Enzyme Assays: The protein concentrations were measured using the Bio-Rad protein assay kit, based on the method of Bradford and further verified on SDS gel. […] The activities were measured using UDP-Gal or UDP-GalNAc as sugar nucleotide donors, and GlcNAc and Glc as the acceptor sugars. For the specific activity measurements, […], 10 mM MnCl2, 10 mM Tris-HCl, pH 8.0, 500 μM UDP-Gal or UDP-GalNAc, 20 ng of Gal-T1, and 0.5 μCl of [^3H]UDP-Gal or [^3H]UDP-GalNAc was used for each Gal-T or GalNAc-T reaction. The incubation was carried out at 37° C. for 10 min. […] The column was washed successfully with 300, 400, and 500 μl of water, and the column flow-through was diluted with Biosafe scintillation fluid; radioactivity was measured with a Beckman counter. A reaction without the acceptor sugar was used as a control. A similar assay was carried out to measure the GalNAc-T activity with Glc and other acceptors in the presence of 50 μM bovine LA (Sigma).

[3] = β4Gal-T1 enzyme assay of in vitro folded CD and SRCD proteins; details: condition I or VIII
Protocol: β4Gal-T1 Enzyme Assays: The in vitro assay for β4Gal-T1 enzyme activity was performed as described (Boeggeman et al., Glycobiology, 12:395-407 (2002)). The ^3H-labeled-UDP-Gal was used as sugar donor and GlcNAc as the sugar acceptor. A reaction without GlcNAc was used as a control.
Binding of recombinant proteins to UDP-affinity column: UDP-agarose was used to bind the active proteins at 4° C. Columns containing 1 ml bed volume of UDP-agarose were pre-equilibrated with 10 ml of 25 mM cacodylic buffer, pH 7.6, containing 25 mM MnCl2. The renatured protein solutions (0.5 mg) were adjusted to the pre-equilibration buffer conditions and applied to the columns. After loading the sample, the pass-through was re-cycled. It was then analyzed for the unbound protein by SDS-PAGE. The columns were washed 3× with 1-ml portions of equilibration buffer. The bound protein was eluted with the elution buffer consisting of 25 mM cacodylic buffer, pH 7.6, 25 mM EDTA and 1 M NaCl. Fractions of 0.5 ml were collected from the columns, and aliquots were analysed by SDS-PAGE. For enzymatic analysis the appropriate fractions were pooled and dialysed against 50 mM Tris-HCl pH 8.0 at 4° C. […]

[4] = GlcNAc-T specific activity assay; details: donor 500 μM; acceptor β-benzyl-GlcNAc 25 mM
[5] = Gal-T specific activity assay; details: donor 500 μM; acceptor β-benzyl-GlcNAc 25 mM (10 mM for C342T); saturating conditions
Protocol: as §1, §2

[6] = Two-substrate kinetic constants, Gal-T reaction; details: UDP-galactose → GlcNAc
Source text: Studies for Determining the Kinetic Constants: The true Km of the donor (KA) and of the acceptor (KB), the dissociation constant of the donor, Ki(a), and kcat were obtained using two-substrate analyses and the primary plots of five concentrations of donor (UDP-Gal or UDP-GalNAc) and five concentrations of acceptor, and the corresponding secondary plots of the intercepts and slopes. Initial rate conditions were linear with respect to time. A suitable range of donor and acceptor concentrations were chosen, which allowed an accurate Michaelis-Menten plot to be derived. The data were also analyzed for a general two-substrate system using the following equations (Zhang et al., Glycobiology, 9:815-822 (1999)) with the software EnzFitter, a Biosoft nonlinear curve-fitting program for Windows.
[formula] Here v is the initial velocity and the rate equation for sequential symmetrical initial velocity pattern associated with Equation 1, an ordered or random equilibrium mechanism in which substrate A dissociates well from the E-S complex with a dissociation constant of Ki(a). Equation 2 is for asymmetric initial velocity pattern for a double displacement or “ping-pong” mechanism. The kinetic parameters KA, KB, Ki(a), and Vmax, were obtained from the fitted curves using the above rate equations. The graphical method and EnzFitter program gave very similar kinetic parameters. In the N-acetylgalactosamine transferase (GalNAc-T) assay, the maximum substrate concentrations used for UDP-GalNAc and GlcNAc were 1 and 200 mM, respectively. However, in the galactose transferase (Gal-T) assay, because of the limited solubility of GlcNAc in water, the concentration of GlcNAc was limited to no more than […] (which is 2-fold higher than its Km value), whereas up to 300 μM UDP-Gal were used.

Row | Molecule | acceptor preference of GalNAc transfer [1] | UDP-GalNAc → GlcNAc GalNAc-T activity [2] [pmol/min/ng] | UDP-GlcNAc → GlcNAc GlcNAc-T activity [4] [pmol/min/ng] | UDP-galactose → GlcNAc Gal-T activity [5] [pmol/min/ng] | further results
1 | Y289N: bovine Gal-T1 catalytic domain, Tyr-289 exchanged with Asn (protein) SLTACPEESPLLVGPMLIEFNIPVDLKLIEQQNPKVKLGGRYTPMDCISPHKVAIIILFRNRQEHLKYWLYYLHPMVQRQQLDYGIYVINQAGESMFNRAKLLNVGFKEALKDYDYNCFVFSDVDLIPMNDHNTYRCFSQPRHISVAMDKFGFSLPYVQNFGGVSALSKQQFLSINGFPNNYWGWGGEDDDIYNRLAFRGMSVSRPNAVIGKTRMIRHSRDKKNEPNPQRFDRIAHTKETMLSDGLNSLTYMVLEVQRYPLYTKITVDIGTPS | transfer GalNAc preferably to Glc rather than to GlcNAc | – | – | – | galactose transferase versus N-acetylgalactosyltransferase activity ([2]; comparison in words (Table III, FIG. 1)): equally strong galactose transferase and N-acetylgalactosyltransferase activities
2 | bovine CDβ4Gal-T1: catalytic domain (residues 130-402) of bovine β4Gal-T1 (protein, UniProt P08037 130-402, looked up, fragment, catalytic domain, catalytic domain (residues 130-402) of bovine β4Gal-T1) SLTACPEESPLLVGPMLIEFNIPVDLKLVEQQNPKVKLGGRYTPMDCISPHKVAIIIPFRNRQEHLKYWLYYLHPILQRQQLDYGIYVINQAGESMFNRAKLLNVGFKEALKDYDYNCFVFSDVDLIPMNDHNTYRCFSQPRHISVAMDKFGFSLPYVQYFGGVSALSKQQFLSINGFPNNYWGWGGEDDDIYNRLAFRGMSVSRPNAVIGKCRMIRHSRDKKNEPNPQRFDRIAHTKETMLSDGLNSLTYMVLEVQRYPLYTKITVDIGTPS | – | – | – | – | specific activity before and after binding on UDP-agarose columns [3]: did not change
3 | Y289I_C342T: bovine Gal-T1 catalytic domain (residues 130-402), Tyr-289 exchanged with Ile, with Cys-342 to Thr mutation (protein) SLTACPEESPLLVGPMLIEFNIPVDLKLIEQQNPKVKLGGRYTPMDCISPHKVAIIILFRNRQEHLKYWLYYLHPMVQRQQLDYGIYVINQAGESMFNRAKLLNVGFKEALKDYDYNCFVFSDVDLIPMNDHNTYRCFSQPRHISVAMDKFGFSLPYVQIFGGVSALSKQQFLSINGFPNNYWGWGGEDDDIYNRLAFRGMSVSRPNAVIGKTRMIRHSRDKKNEPNPQRFDRIAHTKETMLSDGLNSLTYMVLEVQRYPLYTKITVDIGTPS | transfer GalNAc preferably to Glc rather than to GlcNAc | 14.7 | 6.2 | 8.8 | affinity to UDP-GalNAc ([2]; FIG. 1, in words): slightly weaker affinity; specific N-acetylgalactosyltransferase activity relative to Y289L ([2]; at the substrate concentration used): half that of Y289L
4 | C342T: catalytic domain of bovine Gal-T1 (residues 130-402) with the C342T mutation (protein, UniProt P08037 130-402, looked up, variant C342T, catalytic domain, catalytic domain of bovine Gal-T1 (residues 130-402) with the C342T mutation) SLTACPEESPLLVGPMLIEFNIPVDLKLVEQQNPKVKLGGRYTPMDCISPHKVAIIIPFRNRQEHLKYWLYYLHPILQRQQLDYGIYVINQAGESMFNRAKLLNVGFKEALKDYDYNCFVFSDVDLIPMNDHNTYRCFSQPRHISVAMDKFGFSLPYVQYFGGVSALSKQQFLSINGFPNNYWGWGGEDDDIYNRLAFRGMSVSRPNAVIGKTRMIRHSRDKKNEPNPQRFDRIAHTKETMLSDGLNSLTYMVLEVQRYPLYTKITVDIGTPS | – | 0.1 | 0 | 11.8 | KA (true Km of the donor), Gal-T [6]: 98 (6) μM; KB (true Km of the acceptor), Gal-T [6]: 11 (1) MM; Kcat., Gal-T ([6]; unit assumed): 14 s⁻¹
